Molecular target: unlabeled actin filaments (chicken skeletal muscle actin) (chicken) (UniProt P68139)
Assay: other fluorescence titration

- KDR with filaments 10% saturated with cofilin: 0.66 µM
- KDR with filaments 20% saturated with cofilin: 0.87 µM
- KDR with filaments 30% saturated with cofilin: 1.5 µM
- KDR with filaments 45% saturated with cofilin: 2.5 µM
- percent of Arp2/3 complex bound, filaments more than 80% saturated with cofilin: 5%
Substance: S. pombe Arp2/3 complex labeled with pyrene (pyrenyl-Arp2/3 complex) (from UniProt Q9UUJ1 1-390; O14241 1-317; Q92352 1-168)

Reference: paper PMC3711486
